These results are taken from publication PMC5962572, “Crystal structure of dihydrodipicolinate reductase (PaDHDPR) from Paenisporosarcina sp. TG-14: structural basis for NADPH preference as a cofactor” (Scientific Reports, 2018).

In series [1] the target is Dihydrodipicolinate reductase from Paenisporosarcina sp. TG-14 (Paenisporosarcina sp. TG-14). The experiment in a line: AUC; analytical centrifugation of purified PaDHDPR; conditions not told in the main text.
Series [2] concerns the target T1, PaDHDPR (Paenisporosarcina sp. TG-14, UniProt A0A3B6UER2).
T1 construct: gene dapB; full length, residues 1-264; pET-28a N-terminal His tag removed by thrombin; expressed in E. coli BL21(DE3); homotetramer
T1 sequence (A0A3B6UER2 2-265): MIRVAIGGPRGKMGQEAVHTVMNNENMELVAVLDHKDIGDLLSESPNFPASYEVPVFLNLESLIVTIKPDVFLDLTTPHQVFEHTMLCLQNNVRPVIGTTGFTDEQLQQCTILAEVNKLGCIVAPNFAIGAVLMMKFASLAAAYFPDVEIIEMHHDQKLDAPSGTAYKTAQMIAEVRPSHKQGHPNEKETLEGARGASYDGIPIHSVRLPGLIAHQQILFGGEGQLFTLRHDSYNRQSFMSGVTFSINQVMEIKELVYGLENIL
The experiment in a line: isothermal titration calorimetry, one-site model. In kind it is binding.

Series [3] has as its target T2, PaDHDPR (Paenisporosarcina sp. TG-14, UniProt A0A3B6UER2, K37A).
T2 construct: gene dapB; full length, residues 1-264; pET-28a N-terminal His tag removed by thrombin; expressed in E. coli BL21(DE3); homotetramer
The experiment in a line: isothermal titration calorimetry, one-site model. Type of series: binding.

In series [4] the target is T3, PaDHDPR (Paenisporosarcina sp. TG-14, UniProt A0A3B6UER2, H36A).
T3 construct: gene dapB; full length, residues 1-264; pET-28a N-terminal His tag removed by thrombin; expressed in E. coli BL21(DE3); homotetramer
The series can be described thus: isothermal titration calorimetry, one-site model. In kind it is binding. The following applies: 50 mM Tris-HCl, 150 mM NaCl, pH 8.0, 25 °C.

In series [5] the target is T1, PaDHDPR. The series can be described thus: X-ray crystallography, co-crystals, […] Å (binary) and […] Å (with NADPH). Type of series: binding. The settings on record: 10 mM DPA; substrate site of the C-terminal domain; competitive inhibitor.
Series [6] concerns the target T1, PaDHDPR. The series can be described thus: isothermal titration calorimetry. Type of series: binding. The settings on record: 50 mM Tris-HCl, 150 mM NaCl, pH 8.0, 25 °C; 80 μM protein, 1 mM ligand.
Substrate in series [7]: NC(=O)C1=CN([C@@H]2O[C@H](COP(=O)(O)OP(=O)(O)OC[C@H]3O[C@@H](n4cnc5c(N)ncnc54)[C@H](OP(=O)(O)O)[C@@H]3O)[C@@H](O)[C@H]2O)C=CC1
The series can be described thus: purified protein. Type of series: biochemical, Paenisporosarcina sp. TG-14. The settings on record: NADPH varied, DHDP generated from ASA and pyruvate, 100 mM HEPES pH 7.5, 25 °C, varied: cofactor.

Substrate in series [8]: NC(=O)C1=CN([C@@H]2O[C@H](COP(=O)(O)OP(=O)(O)OC[C@H]3O[C@@H](n4cnc5c(N)ncnc54)[C@H](O)[C@@H]3O)[C@@H](O)[C@H]2O)C=CC1
The series can be described thus: purified protein. Type of series: biochemical, Paenisporosarcina sp. TG-14. The settings on record: NADH varied, DHDP generated from ASA and pyruvate, 100 mM HEPES pH 7.5, 25 °C, varied: cofactor.

Substrate in series [9]: O=C(O)C1=N[C@H](C(=O)O)CC=C1
The series can be described thus: purified protein. The settings on record: ASA (L-aspartate-semialdehyde) concentration varied and printed as the substrate, ASA fully converted to DHDP by PaDHDPS with 1 mM pyruvate, NADPH, 100 mM HEPES pH 7.5, 25 °C. In kind it is biochemical, Paenisporosarcina sp. TG-14.

T2 sequence (A0A3B6UER2 entry or part of it K37A): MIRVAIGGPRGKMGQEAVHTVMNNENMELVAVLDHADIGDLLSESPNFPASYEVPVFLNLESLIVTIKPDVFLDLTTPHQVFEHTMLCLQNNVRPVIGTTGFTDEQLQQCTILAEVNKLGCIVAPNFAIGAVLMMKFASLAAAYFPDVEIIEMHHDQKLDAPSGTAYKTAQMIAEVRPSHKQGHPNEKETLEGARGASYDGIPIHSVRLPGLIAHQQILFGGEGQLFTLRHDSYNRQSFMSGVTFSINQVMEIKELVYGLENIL
T3 sequence (A0A3B6UER2 entry or part of it H36A): as the sequence (A0A3B6UER2 entry or part of it K37A) above, with H35A, A36K counted along it

The molecule “Dihydrodipicolinate reductase from Paenisporosarcina sp. TG-14 (enzyme)” came in with a stoichiometry N in series [1] of 4.
Regarding `NC(=O)C1=CN([C@@H]2O[C@H](COP(=O)(O)OP(=O)(O)OC[C@H]3O[C@@H](n4cnc5c(N)ncnc54)[C@H](OP(=O)(O)O)[C@@H]3O)[C@@H](O)[C@H]2O)C=CC1` [NADPH], the dissociation constant (Kd) on PaDHDPR [2] was determined as 37 µM; at PaDHDPR [3] it was 236 µM. Further, at PaDHDPR [4], the no binding detected entry is “H35A mutation induced complete loss of binding affinity”.
As to `O=C(O)c1cccc(C(=O)O)n1` [DPA], the “X-ray crystallography, co-crystals, 1.8 Å (binary) and 2.1 Å (with NADPH)” value at PaDHDPR [5] was “Electron density corresponding to DPA was observed in the substrate-binding site of the C-terminal domain”.
As to `NC(=O)C1=CN([C@@H]2O[C@H](COP(=O)(O)OP(=O)(O)OC[C@H]3O[C@@H](n4cnc5c(N)ncnc54)[C@H](O)[C@@H]3O)[C@@H](O)[C@H]2O)C=CC1` [NADH], the no binding detected entry at PaDHDPR [6] is “NADH did not bind to PaDHDPR”.

B1: PaDHDPR (Paenisporosarcina sp. TG-14) (protein)
chain: MIRVAIGGPRGKMGQEAVHTVMNNENMELVAVLDHKDIGDLLSESPNFPASYEVPVFLNLESLIVTIKPDVFLDLTTPHQVFEHTMLCLQNNVRPVIGTTGFTDEQLQQCTILAEVNKLGCIVAPNFAIGAVLMMKFASLAAAYFPDVEIIEMHHDQKLDAPSGTAYKTAQMIAEVRPSHKQGHPNEKETLEGARGASYDGIPIHSVRLPGLIAHQQILFGGEGQLFTLRHDSYNRQSFMSGVTFSINQVMEIKELVYGLENIL
notes: full length, residues 1-264; pET-28a N-terminal His tag removed by thrombin; expressed in E. coli BL21(DE3); homotetramer
Take B1: the Km in “purified protein [7]” was determined as 22 ± 1.4 µM; in the series “purified protein [8]”, 43 ± 8.9 µM; in the series “purified protein [9]”, 12 ± 1.6 µM. Also, the kcat is 55 ± 1.2 s⁻¹ in “purified protein [7]”, 7.1 ± 0.1 s⁻¹ in “purified protein [8]” and 52 ± 1.1 s⁻¹ in the series “purified protein [9]”.

The term stoichiometry N denotes a count of units in the complex or per binding partner. One may read the Kd as the concentration at which binding is half-saturated. As usually defined, the Km is the concentration of substrate that gives half-maximal velocity. Broadly, the kcat is the maximal rate divided by the concentration of active sites.
